For experiment [1], the target named is human complement C7 (human) (UniProt P10643). The experiment is described as follows: SPR; Biacore 3000; ten micrograms of human C7, C9 or plasminogen conjugated on a CM5 chip (2823, 2034 and 2106 RU); 0.0625 to 1 uM histidine tagged CspA protein flowed over at 10 uL/min, 25°C; 1:1 Langmuir model. On the technique in general: SPR reads the build-up and loss of mass on a sensor chip optically.

In experiment [2] the target is human complement C9 (human) (UniProt P02748). The experiment is described as above.
Experiment [3] addresses human plasminogen (human). The description is as above.
In experiment [4] the target is factor H (FH) from Coturnix quail (Coturnix coturnix quail). The experiment is described as follows: ELISA; one microgram of FH coated on microtiter wells; 0.03125 to 2 μM histidine-tagged CspA proteins or DbpA added; detected by mouse anti-histidine tag; KD from a one-site fit of OD405. In general terms: An ELISA detects its analyte on a solid surface through an enzyme-linked reagent.

Experiment [5] concerns the target factor H (FH) from human, purified (human) (UniProt P08603). The experiment can be described thus: SPR; Biacore 3000; ten micrograms of FH from human, mouse or horse conjugated to a CM5 chip; CspA proteins injected at 10 μL/min, 25°C; 1:1 Langmuir model.
Experiment [6] deals with factor H (FH) from horse (horse). The description is as above.
Experiment [7] has as its target factor H (FH) from mouse, purified (mouse (Mus musculus)) (UniProt P06909). The experiment is described as above.
In experiment [8] the target is factor H (FH) from human, purified (human) (UniProt P08603). The experiment is described as follows: ELISA; one microgram of FH coated on microtiter wells; 0.03125 to 2 μM histidine-tagged CspA proteins or DbpA added; detected by mouse anti-histidine tag; KD from a one-site fit of OD405.
Experiment [9] deals with factor H (FH) from horse (horse). The description is as above.
Experiment [10] addresses factor H (FH) from mouse, purified (mouse (Mus musculus)) (UniProt P06909). The experiment is described as above.

As usually defined, the Kd is the concentration at which binding is half-saturated. Low values mean higher affinity, high ones lower affinity. The term koff denotes the first-order rate constant of dissociation. A higher koff goes with a short-lived complex. A word on the kon: it is the rate constant with which the complex forms.

Sequence of human complement C7 (human) (P10643 23-843): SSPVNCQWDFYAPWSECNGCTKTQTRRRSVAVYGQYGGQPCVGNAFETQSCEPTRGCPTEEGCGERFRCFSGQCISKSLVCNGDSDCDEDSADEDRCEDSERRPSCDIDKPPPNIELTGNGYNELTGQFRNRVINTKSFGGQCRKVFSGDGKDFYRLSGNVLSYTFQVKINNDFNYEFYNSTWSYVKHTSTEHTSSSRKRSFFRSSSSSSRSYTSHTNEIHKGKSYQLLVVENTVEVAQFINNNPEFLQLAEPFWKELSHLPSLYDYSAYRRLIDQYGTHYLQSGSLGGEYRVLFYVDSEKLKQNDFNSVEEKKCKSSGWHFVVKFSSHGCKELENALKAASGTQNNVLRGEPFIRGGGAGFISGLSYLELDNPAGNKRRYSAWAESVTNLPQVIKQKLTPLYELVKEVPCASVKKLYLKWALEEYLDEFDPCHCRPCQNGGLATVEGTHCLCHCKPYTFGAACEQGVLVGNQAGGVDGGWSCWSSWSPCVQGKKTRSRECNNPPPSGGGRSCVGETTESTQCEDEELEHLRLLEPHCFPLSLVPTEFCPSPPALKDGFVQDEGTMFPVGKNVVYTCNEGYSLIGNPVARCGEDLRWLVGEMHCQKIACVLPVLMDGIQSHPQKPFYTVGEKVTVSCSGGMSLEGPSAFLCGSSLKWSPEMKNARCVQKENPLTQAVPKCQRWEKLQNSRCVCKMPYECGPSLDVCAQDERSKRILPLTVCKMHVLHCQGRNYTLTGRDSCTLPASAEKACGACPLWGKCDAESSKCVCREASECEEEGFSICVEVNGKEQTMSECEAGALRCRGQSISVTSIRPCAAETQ
Sequence of factor H (FH) from human, purified (human) (P08603 19-1231): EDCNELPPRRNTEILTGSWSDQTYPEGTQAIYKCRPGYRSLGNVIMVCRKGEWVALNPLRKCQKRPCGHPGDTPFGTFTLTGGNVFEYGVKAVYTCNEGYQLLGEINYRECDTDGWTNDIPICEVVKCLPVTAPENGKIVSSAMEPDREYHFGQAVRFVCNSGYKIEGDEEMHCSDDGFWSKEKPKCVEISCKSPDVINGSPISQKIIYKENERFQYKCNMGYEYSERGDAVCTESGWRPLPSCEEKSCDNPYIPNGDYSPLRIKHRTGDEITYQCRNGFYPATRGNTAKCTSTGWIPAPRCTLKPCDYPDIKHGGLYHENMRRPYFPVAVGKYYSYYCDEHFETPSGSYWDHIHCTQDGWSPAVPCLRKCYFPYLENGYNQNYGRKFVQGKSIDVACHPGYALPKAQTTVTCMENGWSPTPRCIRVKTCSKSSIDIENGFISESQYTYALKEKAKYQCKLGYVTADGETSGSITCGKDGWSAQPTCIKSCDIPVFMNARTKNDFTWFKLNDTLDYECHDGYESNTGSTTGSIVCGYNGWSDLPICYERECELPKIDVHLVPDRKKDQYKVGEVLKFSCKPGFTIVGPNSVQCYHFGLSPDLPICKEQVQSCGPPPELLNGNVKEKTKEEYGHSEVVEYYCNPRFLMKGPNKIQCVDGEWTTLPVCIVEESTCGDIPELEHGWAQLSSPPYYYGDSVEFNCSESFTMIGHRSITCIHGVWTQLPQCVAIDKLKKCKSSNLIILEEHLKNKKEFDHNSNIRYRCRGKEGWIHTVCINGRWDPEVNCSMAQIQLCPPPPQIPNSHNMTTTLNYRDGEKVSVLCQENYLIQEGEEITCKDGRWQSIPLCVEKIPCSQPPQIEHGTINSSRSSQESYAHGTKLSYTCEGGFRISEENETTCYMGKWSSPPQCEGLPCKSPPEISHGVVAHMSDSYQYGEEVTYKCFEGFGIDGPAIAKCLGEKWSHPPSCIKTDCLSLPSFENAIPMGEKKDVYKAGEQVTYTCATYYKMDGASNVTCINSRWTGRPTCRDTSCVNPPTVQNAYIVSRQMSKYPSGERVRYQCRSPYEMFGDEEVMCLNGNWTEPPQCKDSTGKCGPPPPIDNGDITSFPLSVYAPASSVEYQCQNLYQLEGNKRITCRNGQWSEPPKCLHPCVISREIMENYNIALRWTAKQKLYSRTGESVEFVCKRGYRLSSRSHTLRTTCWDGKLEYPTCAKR
Sequence of factor H (FH) from mouse, purified (mouse (Mus musculus)) (P06909 19-1234): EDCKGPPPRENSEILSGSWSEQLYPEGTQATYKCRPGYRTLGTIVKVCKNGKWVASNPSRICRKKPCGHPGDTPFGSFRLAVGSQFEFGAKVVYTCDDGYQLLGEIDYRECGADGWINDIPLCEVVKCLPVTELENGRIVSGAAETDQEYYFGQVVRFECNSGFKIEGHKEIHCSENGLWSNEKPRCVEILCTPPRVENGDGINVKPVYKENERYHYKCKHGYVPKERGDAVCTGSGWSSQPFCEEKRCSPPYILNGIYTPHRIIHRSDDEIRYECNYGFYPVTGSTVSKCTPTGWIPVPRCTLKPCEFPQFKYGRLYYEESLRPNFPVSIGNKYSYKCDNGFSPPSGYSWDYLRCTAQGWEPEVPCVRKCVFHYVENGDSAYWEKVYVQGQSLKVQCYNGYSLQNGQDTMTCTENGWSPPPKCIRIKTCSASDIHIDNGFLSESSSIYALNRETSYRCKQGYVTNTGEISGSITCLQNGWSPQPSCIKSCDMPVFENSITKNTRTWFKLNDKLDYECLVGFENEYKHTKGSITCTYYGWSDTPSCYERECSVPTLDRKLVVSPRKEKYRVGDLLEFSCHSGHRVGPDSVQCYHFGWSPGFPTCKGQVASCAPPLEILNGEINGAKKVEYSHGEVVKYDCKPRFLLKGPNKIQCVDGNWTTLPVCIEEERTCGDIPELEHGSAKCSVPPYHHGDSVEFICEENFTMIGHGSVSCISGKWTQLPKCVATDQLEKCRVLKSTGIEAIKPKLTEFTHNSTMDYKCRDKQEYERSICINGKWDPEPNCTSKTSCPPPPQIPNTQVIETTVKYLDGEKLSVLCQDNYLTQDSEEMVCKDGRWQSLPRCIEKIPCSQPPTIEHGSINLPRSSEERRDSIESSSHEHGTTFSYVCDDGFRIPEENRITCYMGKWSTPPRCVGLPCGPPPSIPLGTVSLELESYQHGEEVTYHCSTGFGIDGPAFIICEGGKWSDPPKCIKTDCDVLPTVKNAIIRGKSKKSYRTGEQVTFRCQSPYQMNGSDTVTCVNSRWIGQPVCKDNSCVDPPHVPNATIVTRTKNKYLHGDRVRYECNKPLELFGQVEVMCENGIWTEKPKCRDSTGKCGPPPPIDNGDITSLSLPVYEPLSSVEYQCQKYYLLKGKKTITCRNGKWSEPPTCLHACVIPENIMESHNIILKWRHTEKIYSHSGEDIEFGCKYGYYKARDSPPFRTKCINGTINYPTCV
Sequence of human complement C9 (human) (P02748 22-559): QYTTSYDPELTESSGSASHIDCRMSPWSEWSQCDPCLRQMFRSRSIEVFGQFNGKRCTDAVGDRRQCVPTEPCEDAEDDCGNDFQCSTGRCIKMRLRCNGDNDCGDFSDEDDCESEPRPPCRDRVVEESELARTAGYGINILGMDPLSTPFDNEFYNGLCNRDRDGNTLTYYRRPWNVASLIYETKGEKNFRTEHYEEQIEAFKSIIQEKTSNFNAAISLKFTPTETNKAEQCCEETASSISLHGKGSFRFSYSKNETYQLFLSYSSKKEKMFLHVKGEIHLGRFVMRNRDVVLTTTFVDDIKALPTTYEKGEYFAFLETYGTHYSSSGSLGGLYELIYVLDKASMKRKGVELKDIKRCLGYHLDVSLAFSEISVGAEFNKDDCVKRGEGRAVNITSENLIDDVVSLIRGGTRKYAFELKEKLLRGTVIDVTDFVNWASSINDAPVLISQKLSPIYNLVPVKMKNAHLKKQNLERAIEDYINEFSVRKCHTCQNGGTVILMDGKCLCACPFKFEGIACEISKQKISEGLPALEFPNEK

In experiment [1], “CspA (Bba68) from B. burgdorferi strain B31, histidine tagged, residue 26 to 252 with leucine-246 replaced by aspartate (domain or fragment)” returned a Kd of 3500 nM, a koff of 0.38 s⁻¹ and a kon of 143000 M⁻¹ s⁻¹. In addition, in experiment [2], the Kd was found to be 5400 nM, the koff was found to be 0.36 s⁻¹ and the kon came out at 70000 M⁻¹ s⁻¹. In [3], this substance had a Kd of 6480 nM, a koff of 0.29 s⁻¹ and a kon of 49000 M⁻¹ s⁻¹.
Take “recombinant histidine-tagged CspA of B. garinii strain ZQ1 (CspAZQ1) (natural protein)”: the Kd in experiment [4] is 360 nM.
As to “recombinant histidine-tagged CspA of B. burgdorferi strain B31 (CspAB31) (natural protein)”, the Kd worked out at 200 nM in experiment [5]; 550 nM in experiment [6]; 70 nM in [7]; 410 nM in experiment [8]; 880 nM in experiment [9]; 230 nM in [10]. Further, the Kd in experiment [4] stood at 920 nM. Also, the koff in experiment [5] was found to be 0.017 s⁻¹; in experiment [6], 0.014 s⁻¹; in experiment [7], 0.012 s⁻¹. Besides, the figures for the kon in experiment [5], in [6] and in experiment [7] were 114000 M⁻¹ s⁻¹, 30000 M⁻¹ s⁻¹ and 188000 M⁻¹ s⁻¹, respectively.
Consider “recombinant histidine-tagged CspA of B. afzelii strain PKo (CspAPKo) (from UniProt G0IU82 1-241) (natural protein)”, for which the Kd turned out to be 110 nM in [5], 460 nM in [7], 160 nM in experiment [8] and 760 nM in [10]. Besides, the figures for the koff in experiment [5] and in [7] were 0.014 s⁻¹ and 0.048 s⁻¹, respectively. In addition, the kon in experiment [5] turned out to be 152000 M⁻¹ s⁻¹; in [7] it was 115000 M⁻¹ s⁻¹.
In [1], “CspA (Bba68) from B. burgdorferi strain B31, histidine tagged, residue 26 to 252 (domain or fragment)” returned a Kd of 5260 nM, a koff of 0.45 s⁻¹ and a kon of 94000 M⁻¹ s⁻¹. Also, in experiment [2], the Kd came out at 5470 nM, the koff amounted to 0.32 s⁻¹ and the kon was found to be 60000 M⁻¹ s⁻¹. Also, in experiment [3], the equilibrium dissociation constant (Kd) is 6350 nM, the koff stood at 0.26 s⁻¹ and the kon turned out to be 43000 M⁻¹ s⁻¹.

Source of the values: paper PMC5993331.
